From the DeepSol protein solubility set

Assay: soluble on expression in E. coli; label from the status in PepcDB or PDB records

**Q.** Which “soluble on expression in E. coli” value does the source give for “MGSDKIHHHHHHMKDNPISPTIPLDQDGVHHGFLKLPYSRDDSAWGSVMIPITVIQNGAGKTALLTGANHGDEYEGPVALQELAATTRAEDVTGRLIIVPYFNYPAFRASARTSPIDRGNLNRAFPGRPDGTVTQKIADYFQRTLLPMADVAVDFHSGGKTLDFVPFAAAHILEDKVLQDACFAAMQAFNAPYSVQLLEIDSEGMYDTAVEEMGKVLVTTELGGGGMSTARSNAIAKKGLRNVLIHFGILQGEMQIDPSVTLDMPDGDCYLFSEHDGLFEIMIDLGEPVQEGDLVARVWSPDRTGEAPVEYRARRSGVLISRHFPGMIKSGDCAAVIGVVEG” here?
**A.** not soluble

**Q.** For “MRGSHHHHHHGSDPAPDAVAQQWAIFRAKYLRPSGRVVDTGNGGESHSEGQGYGMLFAASAGDLASFQSMWMWARTNLQHTNDKLFSWRFLKGHQPPVPDKNNATDGDLLIALALGRAGKRFQRPDYIQDAMAIYGDVLNLMTMKAGPYVVLMPGAVGFTKKDSVILNLSYYVMPSLLQAFDLTADPRWRQVMEDGIRLVSAGRFGQWRLPPDWLAVNRATGALSIASGWPPRFSYDAIRVPLYFYWAHMLAPNVLADFTRFWNNFGANALPGWVDLTTGARSPYNAPPGYLAVAECTGLDSAGELPTLDHAPDYYSAALTLLVYIARAEETIK”, which “soluble on expression in E. coli” value is on record?
**A.** soluble

**Q.** For “MDANTLNVSFEEILKGKKLDEDSIGLTLSPDKDHEDGSQVSPTQDRKELDQVVGEDEKDDFFE”, which “soluble on expression in E. coli” value is on record?
**A.** soluble

**Q.** Which “soluble on expression in E. coli” value does the source give for “MYQVITMYGDNEPWWFFDDWQEDIVQEKTFDNLTDAETYYVEVWQKLSQNYTYVNTKPNYLTAFWNDGEERWCEECDEDLQQYFGLALLENHHAVTFENKAEFTTISNHFGKTKFCKRKVI” here?
**A.** not soluble

**Q.** Which “soluble on expression in E. coli” value does the source give for “MGSDKIHHHHHHYGGDITYNNHNNFHVLHDRHHRSHHSRSNSRDSDEKWECRRLGVFNSPNPLTNPLLSAPKIAYFNRNGKEYAIAVCENPQIQILVGKSRGASPDFTQTRDYAVLSASSKSGLTFKCNRRHDRYEAVNLVTGSMARIEALACITVAQNDTAAVAIVNGIVGPLQAAGLHL” here?
**A.** not soluble

**Q.** For “MAYVTLYPNLILEALGKVRYPGTGKDLVSAGMVEDDIRIDGNKVSFSLIFDKANDPFIKSVVKAAESAILTYISEDVNIKGNISVKSKQAIPAPPAKLLPGVKNIIAVFSGKGGVGKSTVTANLAVSLAKSGYRVGLLDADIFGPSMPKMFHCEESRPVLEEVDGRELIVPEEVMGVKILSIGFFVDPDNAVLWRGSMAGNALTQLIRDANWGELDYFLIDMPPGTSDIHLTLVQTLAITGAVVVTTPQDVALADARKGISMFVGEKINVPVLGLVENMSWFTPAELPQNKYYIFGRDGGKNLAEELNIPLLGQIPLVQGICQSGDEGIPVAVRDDSMMGIAFRELAARVVEQVDYRNEHLDPTKVVEVAHR”, which “soluble on expression in E. coli” value is on record?
**A.** not soluble

**Q.** For “MKSMQDYRTIMTGNDAVAYGAKLARVKLISAYPITPQTTIVEKLASMIANDELDAKYVKVESEHSALATVVSSELAGVRSYTATSSHGLLYMHEMLHWASGQRLPIVMSVVNRAIGPPWNIWADQSDTMNQKDTGWMQVYCESNQEALDTIIMGYKIAENKDVLLPLMSMEDAFILSHTSEPVTIRDQESVNEYLPDLDLPFKINEEHPMGYGSYDTPDGSFMELKKDMVDSMQKAKRIIEDETRKFNEMFGTEYGGLIEKYRMEDADYAIIATGTIASTARYVVDILRKKGEKVGLIRIRYFRPFPYEEILSSLKYVKAAGVIDRSVSFSSGGPTYVEIVQGLYGKLNVPLSSFIAGIGGRDVRIQDIENIYEMLKSGNSGTYWINVKEVR”, which “soluble on expression in E. coli” value is on record?
**A.** not soluble

**Q.** With “MEERPSETNSNVDSSAQPSVAQLAGRFREHAAVARETPASKPTRRKPPCSLPLFPPKVELGQNGEEKSPSGASHPPKIKVKSSPLIEKLQANLAFDPAALLPGASPKSPGLKAIISPFHSPPSTPSSPGIRSHPSEAEEVPVSFDQPPEGTHLPSYNKVRTRGSIKRRPPSRRFRRSQSDCGDFRDYRAVEPSQENGAREENGDDVFPSKSKDPGSPQLNQEAMADGVEGTPRSAEKPRRRNTCNSTEKPEELVRTPEEANAGEKVGQNPDTASQGHPEVQAPSQTGSPEAENGCGSPREETAPGEHTDTGKATEGTASEERVADEDRLGQKSPDANMPEEEGVVREKAPQTSSGKAEGTTIAEPDTKQKEEAPLEPSCSPGADHAAGEITSEIQNEKAVSMDDIPIEDTRM” as the sequence, how does the “soluble on expression in E. coli” value read?
**A.** not soluble

**Q.** Which “soluble on expression in E. coli” value does the source give for “GAMAMSGGLPELGSKISLISKADIRYEGRLYTVDPQECTIALSSVRSFGTEDRDTQFQIAPQSQIYDYILFRGSDIKDIRVVNNHTLP” here?
**A.** soluble

**Q.** With “MPGRFELKPTLAKIWHAPDNFRIMEPLPPMHRRGIIIAAIVLVIGFLLPASETSDSPVVTREAQLDLQSQSQPPTEAQLQAQLVAPQNDPDQVAPVAPEPIQEGQPEEQNQPQTQPFQQDSGIGQQWRSYRVESGKTLAQLFRDHGLPPTDVYAMAQVEGAGKPLSNLKNGQMIKIRQNASGVVTGLTIDGDNGQQVLFTRQPDGSFIRAQ” as the sequence, how does the “soluble on expression in E. coli” value read?
**A.** not soluble

**Q.** Which “soluble on expression in E. coli” value does the source give for “VSKAVQYMAKRRIGALIVFEKETGLQDYIETGIPMNSDISQELLTNVFIPNTPLHDGAMIIQGSKIAVAASYLPLSDSVKISKSLGTRHRAAVGISEVSDAFTVVVSEETGDISVTFDGKLRRDISKDVFEELLAEHWFGAHFQKKGVNS” here?
**A.** not soluble

**Q.** With “MGMYFVGIDGGGTSCRARIKDSQGNFLGEAKSGSANIMLGAEIAMASILESITSAAEQGGLTQQDFASMHVGLALAGAEHKASWQAFMSLPHPFASMTLNTDAYGACVGAHNGEDGAIMIAGTGSCGIYLKGLEQHVVGGREFPISDQGGGAVMGLRLVQQVLLAEDGIREKTPLAQHVMAYFENDVDNVVAWSKQALPRDYGQFSPAIFQHAEQGDALAIEMLKQTAADIEMFLVALNKRGATRICLMGSIAERILRWLSPPVQQWVVEPQFDAIEGAIMFAGKPEHNLYSLSAALEHHHHHH” as the sequence, how does the “soluble on expression in E. coli” value read?
**A.** not soluble

**Q.** Which “soluble on expression in E. coli” value does the source give for “MPNRPDLCLGVMSIELRHLRAAVAIAEAGSFTAAANALHITQPALTRTVQQLETSLGVRLFDRTSRALALTEDGAGFVEKVRVILGDLDSAVALYTNRSLVLGFSWLLPDPWAQQVIDDVEKNSRATVVPRRYDDPVAALNNATVDAAVVRRDVPGDEFVQHPLFEEQRIAAVSTASPLATRESIDWAEFGTLPLVINTLSGTTSEDLWPNHDGPVVTCSNFDDWLELIAADRGVGTVPEVARRRVTHRNVQFIPLVGAPPAVVRFVYRRNRVTPLLRVLRDAAIRHSPPPGSVTVGQHD” here?
**A.** not soluble

**Q.** Which “soluble on expression in E. coli” value does the source give for “MLLDSIFFRTHPDWIVCCRFLQGVGTDREKREENGRKKTVKITIFSDCMLWANPISLCIRHRAVFNNRNLRMDFSSYTILCLNRLDAWIPAFGIPK” here?
**A.** not soluble

**Q.** For “GPLGSSMEDHDDHLRRKFMEFPYVSPTRKQLMVDLMSTVENRLQSQLLPCNLPPDVRNFNNPNGSAEASLHIRSGDKSSPIDFVIGSWIHCKIPTGVSLNITSISGFLNSSTKAPNFVVELIQSSSKSLVLILDLPHRKDLVLNPDYLKEYYQDTALDSHRQSLLKLPEVNPYVSPSLFVRSAFSPTASMLKIDAEEEDKLEEILRDHVSPAAKEVLEVWLERCVKEEEEKIVVGEEERMELERRDKSFRRKSIEDDLDLQFPRMFGEEVSSRVVHAIKEAFGVL”, which “soluble on expression in E. coli” value is on record?
**A.** soluble

**Q.** For “MKTLSPAVITLLWRQDAAEFYFSRLSHLPWAMLLHSGYADHPYSRFDIVVAEPICTLTTFGKETVVSESEKRTTTTDDPLQVLQQVLDRADIRPTHNEDLPFQGGALGLFGYDLGRRFESLPEIAEQDIVLPDMAVGIYDWALIVDHQRHTVSLLSHNDVNARRAWLESQQFSPQEDFTLTSDWQSNMTREQYGEKFRQVQEYLHSGDCYQVNLAQRFHATYSGDEWQAFLQLNQANRAPFSAFLRLEQGAILSLSPERFILCDNSEIQTRPIKGTLPRLPDPQEDSKQAVKLANSAKDRAENLMIVDLMRNDIGRVAVAGSVKVPELFVVEPFPAVHHLVSTITAQLPEQLHASDLLRAAFPGGSITGAPKVRAMEIIDELEPQRRNAWCGSIGYLSFCGNMDTSITIRTLTAINGQIFCSAGGGIVADSQEEAEYQETFDKVNRILKQLEK”, which “soluble on expression in E. coli” value is on record?
**A.** soluble
